Assay results from patent US8088412B2, “Intralymphatic chemotherapy drug carriers” (priority 2008, dated 2012).
Entries after “also recorded” stand apart in the source; their conditions may differ. Like-named read-outs stand apart in the source and are kept apart here. Marks after values point to notes of the source that are not given here.

How the values were obtained:
MDA-MB-231 = assay: In vitro cell toxicity (DMEM, resazurin blue, 72 hrs); format: cell-based, human
Experimental: (§1) Cell lines were seeded into 96-well plates (5000 cells/well) in DMEM medium supplemented with 5% FBS and 1% penicillin/streptomycin.

MCF7 = assay: as above; format: cell-based, human
Experimental: as §1

MDA-1986 cells = assay: In vivo efficacy of HA-cisplatin, orthotopic HNSCC model; parameters: species or system Nu/Nu female athymic nude mice; conditions: subcutaneous, weekly dose of 3.3 mg/kg for 3 weeks; 5 mice
Source text: The in vivo efficacy of HA-cisplatin was studied. All treatment began once animal HNSCC tumors reached 100 mm3 volume. Treatment commenced for 3 weeks. All animals were given 5×10^5 MDA-1986 cells in the buccal mucosa of the left cheek (which is a novel orthotopic HNSCC model I developed this year) and tumors develop in 2-3 weeks.

[1] = Long-term toxicology: pathological examination (H&E) at 30 days; format: in vivo, Sprague-Dawley rats; conditions: for lymphoid tissue histology (H&E) / underlying tissue at injection site: 30 days post injection; for brain tissue histology (H&E) / kidney tissue histology (H&E) / liver tissue histology (H&E): 30 days post single injection
Experimental: Each animal was administered a single bolus dose at the beginning of the 30-day study period. […] In order to reduce the stress to animals, subjects were housed in metabolic cages for 12 hrs to collect approximately 5 ml of urine and then returned to cages with bedding until the next collection period. Urine samples were centrifuged at 17,000×g for 5 mins and stored in −80° C. freezer until creatinine analysis.
The animals were euthanized at the end of the study (30 days) and the liver, bilateral kidneys, spleen, lungs, heart, right (ipsilateral) and left (contralateral) axillary nodes, and brain were excised intact and stored in 80% alcoholic formalin solution overnight for fixation before slide mounting. Mounting using haematoxylin & eosin (H&E) staining were conducted by Veterinary Lab Resources (Kansas City, Kans.). The pathological examination was performed by a blinded board-certified veterinarian pathologist (University of Kansas Medical Center, Kansas City, Kans.).

MDA-MB-468LN = assay: Cell proliferation over 72 hrs, resazurin blue; format: cell-based, human
Experimental: Preceding proliferation studies, cells were trypsinized and seeded into 96-well plates (5,000 cells/well). […] After 4 hrs, well fluorescence was measured (λex 560 nm, λem 590 nm) using a fluorophotometer (SpectraMax Gemini; Molecular Devices, Sunnyvale, Calif.). IC50 was determined as the midpoint between saline (positive) and cell-free (negative) controls for each plate.

[2] = Tissue distribution after subcutaneous cisplatin or cisplatin-HA into right mammary fat pad; format: in vivo, Sprague-Dawley rats
Experimental: Animals were allowed to recover with access to food and water. […] Organs and tissues were washed with 0.9% saline and frozen (−80° C.) until analysis. Plasma was separated by centrifugation from whole blood and frozen (−80° C.).
In vitro release samples (n=3) and plasma samples (n=5) were diluted 200-fold and 10-fold, respectively, with 0.1% nitric acid for analysis. […] Lymph nodes were processed similarly using 10 mg of tissue. After digestion, samples were homogenized (Tissue Tearor, BioSpec Products Inc., Bartlesville, Okla.). All samples were centrifuged (17 000×g, 20 min), and the supernate used for analysis.
Analysis was performed on a Varian SpectrAA GTA-110 with graphite furnace and partition tubes. Samples (21 μL) were injected using the autosampler, followed by 19 μL of 0.1% nitric acid. […] The furnace program was as follows: ramp 25 to 80° C., hold 2 s, ramp to 120° C., hold 10 s, ramp to 1000° C., hold 5 s, ramp to 2700° C., hold 2 s, cool to 25° C. over 20 s. The graphite partition tube was cleaned every 40 samples by baking at 2800° C. for 7 s. Argon was used as the injection and carrier gas.

Substance: [PtCl(H2O)(NH3)2]OOCO-HA [HA-cisplatin]
- IC50 (MDA-MB-231; cisplatin basis): 7 µg/mL
- IC50 (MDA-MB-231; read-out: IC50): 23 µM
- IC50 (MCF7; MCF-7, cisplatin basis): 7 µg/mL
- IC50 (MCF7; MCF-7, read-out: IC50): 23 µM
- response to therapy (MDA-1986 cells): 2 animals had a complete response to therapy and the third (HA-cis 1) had a partial response to therapy
- tumor growth delay (MDA-1986 cells): delayed tumor growth in all 5 animals
- lymphoid tissue histology (H&E) ([1]; 1 mg/kg subcutaneous): normal findings
- underlying tissue at injection site ([1]; 1 mg/kg subcutaneous): normal findings
- brain tissue histology (H&E) ([1]; 1 mg/kg subcutaneous): normal findings
- kidney tissue histology (H&E) ([1]; 1.0 mg/kg subcutaneous): normal appearance except for minimal renal tubular cell swelling and degeneration
- liver tissue histology (H&E) ([1]; 1.0 mg/kg subcutaneous): Very mild changes; also recorded: normal appearance
- lymphoid tissue histology (H&E) ([1]; 3.3 mg/kg subcutaneous): Very mild changes; also recorded: normal findings
- underlying tissue at injection site ([1]; 3.3 mg/kg subcutaneous): normal findings
- brain tissue histology (H&E) ([1]; 3.3 mg/kg subcutaneous): normal findings
- kidney tissue histology (H&E) ([1]; 3.3 mg/kg subcutaneous): fairly normal appearance except for minor foci of tubular cell necrosis at the corticomedullary junction
- liver tissue histology (H&E) ([1]; 3.3 mg/kg subcutaneous): Mild degeneration with some sinusoidal necroses; also recorded: fairly normal appearance except for very mild degeneration
- animals diagnosed with mild renal necrosis ([1]; high dose (3.3 mg/kg) subcutaneous, 30 days, of 5): 20%
- animals with renal necrosis ([1]; low dose (1.0 mg/kg) subcutaneous, 30 days): none
- IC50 (MDA-MB-468LN; HA carriers on a Pt-basis equivalent to cisplatin): 10 µg/mL
- IC50 (MDA-MB-468LN; Pt-basis, read-out: IC50): 33 µM
- AUC in the right (draining axillary) lymph node, greater than cisplatin in saline ([2]; 96 hrs, subcutaneous, p=0.0001): 74%
- AUC (0-96 hrs) ([2]; Bladder, subcutaneous into right mammary fatpad of female rats): 194.5 µg·h/g
- AUC (0-96 hrs) ([2]; Brain, subcutaneous into right mammary fatpad): 343.7 µg·h/g
- AUC (0-96 hrs) ([2]; Heart, subcutaneous into right mammary fatpad): 465.3 µg·h/g
- AUC (0-96 hrs) ([2]; Kidneys, subcutaneous into right mammary fatpad): 668.6 µg·h/g
- AUC (0-96 hrs) ([2]; Left lymph node (LLN), subcutaneous into right mammary fatpad): 413.4 µg·h/g
- AUC (0-96 hrs) ([2]; Liver, subcutaneous into right mammary fatpad): 495.0 µg·h/g
- AUC (0-96 hrs) ([2]; Lungs, subcutaneous into right mammary fatpad): 347.3 µg·h/g
- AUC (0-96 hrs) ([2]; Muscle, subcutaneous into right mammary fatpad): 262.1 µg·h/g
- AUC (0-96 hrs) ([2]; Plasma, subcutaneous into right mammary fatpad): 186.1 µg·h/g
- AUC (0-96 hrs) ([2]; Right lymph node (RLN), subcutaneous into right mammary fatpad, p < 0.05): 776.0 ^† μg · hr/g
- AUC (0-96 hrs) ([2]; Spleen, subcutaneous into right mammary fatpad): 383.4 µg·h/g
- distribution of cisplatin to other organs vs cisplatin ([2]; over the study period): not significantly different over the study period
- AUC in the non-draining left lymph node (LLN) vs cisplatin in saline ([2]; p=0.12): not significantly different from cisplatin in saline
- plasma AUC, difference between cisplatin-HA and cisplatin ([2]; p=0.13): not a significant difference
- serum Cmax ([2]; subcutaneous, 3.3 mg/kg cisplatin basis, FIG. 10B): less than 3 micrograms/mL
- tolerability in rodents ([2]; subcutaneous, after 96 hours): well tolerated in rodents with no signs of injection site morbidity or major organ toxicity after 96 hours
